# In US20230257435A1, “Wound Healing Composition and Uses Thereof” (AGENCY FOR SCIENCE, TECHNOLOGY AND RESEARCH, priority 2020, published 2023):
# B1: sAgrin: C-terminus recombinant Agrin fragment containing 8 amino acid 'Z8' insert and LG3 domain (SEQ ID NO: 7), His-tagged, expressed in E. coli (protein)
# chain: DTLAFDGRTFVEYLNAVTESELANEIPVEKALQSNHFELSLRTEATQGLVLWSGKATERADYVALAIVDGHLQLSYNLGSQPVVLRSTVPVNTNRWLRVVAHREQREGSLQVGNEAPVTGSSPLGATQLDTDGALWLGGLPELPVGPALPKAYGTGFVGCLRDVVVGRHPLHLLEDAVTKPELRPCPTP
# modifications: His tag
# Tested on: mouse keratinocytes
# Assay: Cell stiffness by atomic force microscopy (AFM)
# Format: cell-based
# Protocol: The stiffness of the mouse keratinocyte cells was measured using a Nanowizard IV BioAFM system (JPK Instruments, Germany). Confluent mouse kerantinocyte monolayers were cultured on a petri dish in PBS media. The monolayers were scratched across the center of the petri dish using a 100 μl pipette tip and characterised after 4 hrs. Indentations were performed on randomly selected cells at the wound edge with a polystyrene bead of diameter (˜4.5 μm) attached to the end of a cantilever (k=0.03 N/m, Novascan Technologies, Inc., Ames, Iowa) using a force of 3 nN at 1 Hz. More than 60 cells from triplicate experiments were characterized and averaged to evaluate the Young's modulus for each condition. Young's modulus values were calculated using JPK Data Processing Software (JPK Instruments, Germany), which employs Hertz's contact model for spherical indenters (diameter 4.5 μm; Poisson's ratio 0.5) fitted to the extend curves.
molecule,measurement,setting,value
B1,stiffness of migrating MMP12 knockdown keratinocytes,"4 h post-injury, sAgrin treatment",not restored by sAgrin treatment
same,stiffness of migrating keratinocytes,"Agrin knockdown rescued with 10 μg/ml sAgrin, 4 h post-wound scratch, control ~2.1, knockdown ~0.9 KPa",~1.5 KPa
